According to patent US20250304965A1, “DOUBLE-STRANDED RNA MOLECULE AND PHARMACEUTICAL USE THEREOF” (MACAU UNIVERSITY OF SCIENCE AND TECHNOLOGY, priority 2022, published 2025):
[Ψ] = pseudouridine

Assays:
Type in all cases: cell-based, human
[1] = tested on: HepG2 cells; experiment: MTT cytotoxicity analysis, liver cancer cells HepG2
Procedure: (§1) A2780 and HCT-8 cell lines were cultured in RPMI 1640 medium containing 10% FBS and 1% penicillin/streptomycin. HepG2 cell lines were cultured in MEM medium containing 10% FBS and 1% penicillin/streptomycin. All the above cell lines were cultured at 37° C. in a humidified atmosphere containing 5% CO2.
(§2) In the cytotoxicity analysis, exponentially growing cells of each cancer cell line were inoculated at a density of 5000 cells per well in a 100 μL medium in a 96-well microplate and allowed to adhere for 24 hours prior to treatment. Then obtained RNA molecules at successive concentrations with a nucleic acid transfer vector, namely, Lipofectamine™ RNAiMAX transfection reagent (Thermo Fisher Scientific, United States), were added to the cells. After 48 hours of treatment, MTT solution (50 μL per well, 1 mg/mL solution) was added to each well and incubated at 37° C. for 4 hours. Then 200 μL of dimethyl sulfoxide (DMSO) was added, and an optical density of the resulting solution was measured via calorimetry by using SpectraMax 190 microplate reader (Molecular Devices, United States) at 570 nm. Dose-response curves were obtained and IC50 values were calculated via GraphPad Prism 5 (GraphPad, United States). Each experiment was performed three times.
(§3) Before addition of the MTT solution, the inventor determined the cytotoxic effects and IC 50 of the GL1, GL2, GL4, and GL6 mimics at different concentrations of 6.25 nM, 12.5 nM, 25 nM, 50 nM, 100 nM, and 200 nM on A2780, HCT-8 and HepG2 cells. After 48 hours of the treatment of the double-stranded RNA molecules, the cell viability of these cells was compared with that of the control group and the RNAiMAX group. Paclitaxel was used in a comparative example. […] The results were compared with those of the control group and the RNAiMAX group using the transfection agent. For IC50, refer to Table 4. Paclitaxel was used in a comparative example.
(§4) Then the inventor specifically determined the cytotoxic effects and IC50 of the RNA molecules GL2 mimic and different chemically modified GL10, GL11 and GL12 mimics at different concentrations of 6.25 nM, 12.5 nM, 25 nM, 50 nM, 100 nM, and 200 nM on A2780, HCT-8 and HepG2 cells. […] For IC50, refer to Table 5. Paclitaxel was used in a comparative example.

[2] = tested on: A2780 cells; experiment: MTT cytotoxicity analysis, ovarian cancer cells A2780
Procedure: as §1, §2, §3, §4

[3] = tested on: HCT-8 cells; experiment: MTT cytotoxicity analysis, colorectal cancer cells HCT-8
Procedure: as §1, §2, §3, §4

B1: GL12 mimic: chemically modified GL2 double-stranded RNA (pseudouridine); antisense SEQ ID NO: 22, sense SEQ ID NO: 26, length 41 (nucleic acid)
antisense: AUAAGGAAUCUGUAGAAGUUCGAUUCUUCUUGGGCUUACCA
sense: UGGUAAGCCCAAGAAGAAUCGAACUUCUACAGAUUCCUUAU
modifications: antisense: RNA, [Ψ] at 20, backbone not given here; sense: RNA, backbone not given here
- IC50 ([1]; HepG2 liver cancer cells, 48 hours of treatment, Lipofectamine RNAiMAX transfection reagent, MTT, read-out: Median inhibitory concentration IC50): 0.183 µM
- inhibition of growth and proliferation (cell viability vs control and RNAiMAX group) ([1]; liver cancer cells HepG2, 6.25-200 nM, 48 hours, FIG. 6-8): have a dose-dependent effect on inhibiting the growth and proliferation
- IC50 ([2]; A2780 ovarian cancer cells, 48 hours of treatment, Lipofectamine RNAiMAX transfection reagent, MTT, read-out: Median inhibitory concentration IC50): 0.0437 µM
- inhibition of growth and proliferation (cell viability vs control and RNAiMAX group) ([2]; ovarian cancer cells A2780, 6.25-200 nM, 48 hours, FIG. 6-8): have a dose-dependent effect on inhibiting the growth and proliferation
- IC50 ([3]; HCT-8 colorectal cancer cells, 48 hours of treatment, Lipofectamine RNAiMAX transfection reagent, MTT, read-out: Median inhibitory concentration IC50): 0.0324 µM
- inhibition of growth and proliferation (cell viability vs control and RNAiMAX group) ([3]; colon cancer cells HCT-8, 6.25-200 nM, 48 hours, FIG. 6-8): have a dose-dependent effect on inhibiting the growth and proliferation
